Target: polygalacturonase (endo-PG) from the culture filtrate of Botrytis cinerea DEL 11 (Botrytis cinerea DEL 11)

B1: pear polygalacturonase inhibitor protein (PGIP) purified from Pyrus communis L. cv Bartlett fruit (protein)
chain: DLCNPDDKKVLLQIKKAFGDPYVLASWKSDTDCCDWYCVTCDSTTNRINSLTIFAGQVSGQIPALVGDLPYLETLEFHKQPNLTGPIQPAIAKLKGLKSLRLSWTNLSGSVPDFLSQLKNLTFLDLSFNNLTGAIPSSLSELPNLGALRLDRNKLTGHIPISFGQFIGNVPDLYLSHNQLSGNIPTSFAQMDFTSIDLSRNKLEGDASVIFGLNKTTQIVDLSRNLLEFNLSKVEFPTSLTSVDINHNKIYGSIPVEFTQLNFQFLNVSYNRLCGQIPVGGKLQSFDEYSYFHNRCLCGAPLPSCK
modifications: glycoprotein: N-linked glycans (seven potential N-glycosylation sites; occupied sites not determined)
Question: With B1 as the binder, how does the release of reducing sugars from sodium polypectate (reducing sugar assay) (times (against the tomato PGIPs)) read?
Answer: 20
